This passage reports binding result and ratio results from patent US20170137467A1 (CHROMOTEK, published 2017).

For assay [1], the target named is T1, BC2T A6R peptide (BC2TA6X library) (human).
T1 construct: also called arginine at position 6
T1 peptide: Ac-PDRKARVSHWQQ-NH2
Kind of assay: BC2TA6X library pulldown with immobilized Nb, LC-MS of the supernatant. On the procedure: (§1) To investigate the binding specificity of the BC2T and derived mutants peptide libraries for each amino acid position of the sequence […] (SEQ ID NO:4) were synthesized with acetyl and amide groups located at the N-termini or C-termini respectively (Intavis). […] Incubations were performed in 300 μl PBS/0.01% CHAPS for 1 h on a HulaMixer (Life Technologies). Subsequent to a centrifugation step 10 μl supernatant were analyzed in a LC-MS procedure. Peptides were separated using an UltiMate3000 RSLCnano System (Thermo Scientific), composed of a C18 PepMap100μ-Precolumn (300 μm×5 mm; particle size: 5 μm; pore size: 100 Å—Thermo Scientific) and a C18 analytical column (Acclaim Rapid Separation LC (RSLC) Column: 150 mm×5 mm; particle size: 2.2 μm; pore size: 100 Å—Thermo Scientific). A step gradient was applied starting at 8% and ending after 20 min at 30% eluent B (80% acetonitrile, 20% H₂O, 0.1% formic acid). Peptides were analyzed using a FULL-MS-strategy detected by a Q Exactive Plus mass spectrometer (Thermo Scientific). As maximal injection time 100 ms was chosen while setting the AGC target to 3E6. The resolution was set to 70.000. Half-maximal signal areas were referenced to control precipitation approaches using a GFP-specific nanobody immobilized on agarose beads. All experiments were done in triplicates.

Assay [2] addresses T2, BC2T A6K peptide (BC2TA6X library) (human).
T2 construct: also called lysine at position 6
T2 peptide: Ac-PDRKAKVSHWQQ-NH2
The description is as above. On the procedure: as §1

Another assay addresses T3, β-catenin peptide 73-87 (human, UniProt P35222).
T3 construct: synthetic 15-mer; additional N-terminal cysteine for coupling; also called Start 73 End 87
T3 peptide (looked up): SFTQEQVADIDGQYA
Kind of assay: pepscan: 15-mer peptide on OVA-microspheres, biotinylated BC2-Nb, streptavidin-PE. An excerpt: As negative controls, microspheres comprising Ovalbumin and the Myc-peptide ([…]) covalently coupled to OVA-microspheres were used. […] Evaluation of the PE-signals were done in a Flexmap 3D (Luminex).

Another assay addresses T4, BC2T P1T.
T4 construct: positional scanning library member
T4 peptide: Ac-TDRKAAVSHWQQ-NH2
The assay can be described thus: positional peptide library pulldown on immobilised Nb, LC-MS of supernatant; signal ratio to control GFP-Nb (1 = not captured, near 0 = captured). Put shortly:
(§2)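 Unbound peptide left in supernatant after 1 h pulldown in PBS/0.01% CHAPS measured by reversed-phase LC-MS (8–30% eluent B gradient, 20 min).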

The next assay deals with T5, BC2T V7N.
T5 construct: positional scanning library member
T5 peptide: Ac-PDRKAANSHWQQ-NH2
The assay is described as above. The essentials: as §2

In the next assay the target is T6, BC2T P1D.
T6 construct: positional scanning library member
T6 peptide: Ac-DDRKAAVSHWQQ-NH2
Described as above. The essentials:
as §2

A further assay has as its target T7, BC2T R3E.
T7 construct: positional scanning library member
T7 peptide: Ac-PDEKAAVSHWQQ-NH2
The description is as above. Put shortly:
as §2

In another assay the target is T8, BC2T K4R.
T8 construct: positional scanning library member
T8 peptide: Ac-PDRRAAVSHWQQ-NH2
The description is as above. The essentials:
as §2

Another assay has as its target T9, BC2T V7K.
T9 construct: positional scanning library member
T9 peptide: Ac-PDRKAAKSHWQQ-NH2
The assay is described as above. Put shortly: as §2

The target in another assay is T10, BC2T K4C(Abu) (not fully specified (residue 4)).
T10 construct: positional scanning library member
T10 peptide: Ac-PDRCAAVSHWQQ-NH2
The assay is described as above. The essentials: as §2

For a further assay, the target named is T11, BC2T R3W.
T11 construct: positional scanning library member
T11 peptide: Ac-PDWKAAVSHWQQ-NH2
The description is as above. Put shortly: as §2

For another assay, the target named is T12, BC2T A5K.
T12 construct: positional scanning library member
T12 peptide: Ac-PDRKKAVSHWQQ-NH2
Described as above. The essentials:
as §2

Another assay concerns the target T13, BC2T P1S.
T13 construct: positional scanning library member
T13 peptide: Ac-SDRKAAVSHWQQ-NH2
The assay is described as above. Put shortly: as §2

For assay [3], the target named is T14, BC2T peptide PDRKAAVSHWQQ (human).
T14 construct: aa 16-27 of beta-catenin; also called BC2-tag; BC2-peptide
T14 peptide: Ac-PDRKAAVSHWQQ-NH2
The assay is described as above. The essentials:
as §2

Another assay concerns the target T15, BC2T Q12D.
T15 construct: positional scanning library member
T15 peptide: Ac-PDRKAAVSHWQD-NH2
The assay is described as above. The essentials:
as §2

B1: BC2 nanobody (VHH)
VHH: QVQLVESGGGLVQPGGSLTLSCTASGFTLDHYDIGWFRQAPGKEREGVSCINNSDDDTYYADSVKGRFTIFMDNAKDTVYLQMNSLKPEDTAIYYCAEARGCKRGRYEYDFWGQGTQVTVSS
notes: Alpaca VHH, 122 aa; also called BC2-Nb; BC2 nanotrap (BC2-Nb immobilized on agarose/Sepharose beads); not shown: C-terminal 6xHis-tag added by the pHEN6 vector
As to B1, the binding result in assay [1] is “no binding”; in assay [2] it was “no binding”; with β-catenin peptide 73-87, “no binding (tested: 1 µg/ml BC2-Nb)”.

B2: BC2-NbR106E (VHH)
VHH: QVQLVESGGGLVQPGGSLTLSCTASGFTLDHYDIGWFRQAPGKEREGVSCINNSDDDTYYADSVKGRFTIFMDNAKDTVYLQMNSLKPEDTAIYYCAEARGCKRGEYEYDFWGQGTQVTVSS
notes: headlock mutant of BC2-Nb; immobilised on beads in this assay
As to B2, the ratio in the assay with BC2T P1T stood at 0.6; with BC2T V7N it was 0.4; with BC2T P1D it was 0.8; with BC2T R3E, 1; with BC2T K4R, 0.1; with BC2T V7K, 0.1. The ratio with BC2T K4C(Abu) came to 0.2; with BC2T R3W, 1.1; with BC2T A5K, 0; in the assay with BC2T P1S, 0.4.

B3: BC2 nanobody (VHH)
VHH: QVQLVESGGGLVQPGGSLTLSCTASGFTLDHYDIGWFRQAPGKEREGVSCINNSDDDTYYADSVKGRFTIFMDNAKDTVYLQMNSLKPEDTAIYYCAEARGCKRGRYEYDFWGQGTQVTVSS
notes: immobilised on beads in this assay; also called BC2-Nb; BC2 nanotrap (immobilised)
As for B3, the ratio in [3] came to 0.1; with BC2T Q12D, 0.6.
